# Experimental data from patent publication US12472269B2, “Liver-specific inducible promoters and methods of use thereof” (ASKBIO INC., priority 2019, dated 2025).
# System: AXOL ARE-hepatocytes
# Assay: Luciferase expression from PBREM promoters in AXOL ARE-hepatocytes, induction by CITCO
# Type: cell-based, human
# Conditions: for induced luciferase expression as a ratio to CMV-IE: induction with CITCO, mean of 3 biological replicates
# Excerpt: Axol Assay-Ready Expanded (ARE) Hepatocytes are primary human hepatocytes that have been expanded in vitro. Large batch sizes (up to 2000 vials) are available, ensuring a reliable, ready-to-use and consistent source of primary hepatocytes. ARE Hepatocytes express CYP enzymes, are metabolically functional, are polarized and can be infected by the Hepatitis C virus. AXOL ARE-hepatocytes express CAR negating the need to transfect with a CAR-expressing plasmid.
# • AXOL assay-ready expanded (ARE) hepatocytes (Axol, ax3701) • ARE hepatocyte thawing medium (Axol, ax3705) • ARE maintenance medium (Axol, ax3710) • Virimer red transfection reagent (Lipocalyx, VR04-02-15) • CITCO, lucifierase, β-galactosidase and BCA kits as described above
# ARE hepatocytes were cultured and transfected as described in the manufacturer's manual. 200,000 cells were seeded in 2 ml culture medium in collagen-coated 6 well plate. The cells were incubated for 4 h at 37° C. and 5% CO2 for sufficient adhesion. 200 μl of transfection mixture containing the DNA to be transfected (PB1-MinTK/PB1-CMV/PB1-SV40 operably linked with luciferase and β-galactosidase containing promoter) was added and the cells were incubated on an orbital shaker at 100 rpm for three hours at 37° C. and 5% CO2. 3 hrs after transfection CITCO was added to the appropriate wells. Cells were incubated under static conditions at 37° C. and 5% CO2 overnight and in the morning the medium was replaced with fresh ARE Hepatocyte Maintenance Medium. Readout was 24 hrs after induction. […]
# [1] = single PBREM element, minimal promoters compared
Molecule,induced luciferase expression as a ratio to CMV-IE,further results
"PB1-1-SV40: promoter: 2 mouse PBREM elements with SV40 minimal promoter, SEQ ID NO: 13 (nucleic acid, PB1-1-SV40) DNA: TCTGTACTTTCCTGACCTTGGCACAGTGCCACCATCAACTTGCCTGACACCCATTACTCGCATCCATTCTCTCTGTACTTTCCTGACCTTGGCACAGTGCCACCATCAACTTGCCTGACACCGCTGGGAGTTCGTAGACGGACTAGCCCGGGCTCGAGATCTGCGATCTGCATCTCAATTAGTCAGCAACCATAGTCCCGCCCCTAACTCCGCCCATCCCGCCCCTAACTCCGCCCAGTTCCGCCCATTCTCCGCCCCATCGCTGACTAATTTTTTTTATTTATGCAGAGGCCGAGGCCGCCTCGGCCTCTGAGCTATTCCAGAAGTAGTGAGGAGGCTTTTTTGGAGGCCTAGGCTTTTGCAAAAAGCTTGGCATTCCGGTACTGTTGGTAAAGCCACCC",2.6,–
"PB1-2-SV40: promoter: 3 mouse PBREM elements with SV40 minimal promoter, SEQ ID NO: 14 (nucleic acid, PB1-2-SV40) DNA: TCTGTACTTTCCTGACCTTGGCACAGTGCCACCATCAACTTGCCTGACACCCATTACTCGCATCCATTCTCTCTGTACTTTCCTGACCTTGGCACAGTGCCACCATCAACTTGCCTGACACCGCACTGAAGGTCCTCAATCGTCTGTACTTTCCTGACCTTGGCACAGTGCCACCATCAACTTGCCTGACACCGCTGGGAGTTCGTAGACGGACTAGCCCGGGCTCGAGATCTGCGATCTGCATCTCAATTAGTCAGCAACCATAGTCCCGCCCCTAACTCCGCCCATCCCGCCCCTAACTCCGCCCAGTTCCGCCCATTCTCCGCCCCATCGCTGACTAATTTTTTTTATTTATGCAGAGGCCGAGGCCGCCTCGGCCTCTGAGCTATTCCAGAAGTAGTGAGGAGGCTTTTTTGGAGGCCTAGGCTTTTGCAAAAAGCTTGGCATTCCGGTACTGTTGGTAAAGCCACCC",3.6,–
"PB1-CMV-MP: promoter: 1 mouse PBREM element with CMV minimal promoter, SEQ ID NO: 8 (nucleic acid, PB1-CMV-MP) DNA: TCTGTACTTTCCTGACCTTGGCACAGTGCCACCATCAACTTGCCTGACACCGCTGGGAGTTCGTAGACGGAGCGATTAATCCATATGCAGGTCTATATAAGCAGAGCTCGTTTAGTGAACCGTCAGATCGCCTAGATACGCCATCCACGCTGTTTTGACCTCCATAGAAGATCGCCACCC",–,expression level compared to CMV-IE (1 μM CITCO): 10%; expression driven [1]: little to no expression
"PB1-3-CMV: promoter: 4 mouse PBREM elements with CMV minimal promoter, SEQ ID NO: 18 (nucleic acid, PB1-3-CMV) DNA: TCTGTACTTTCCTGACCTTGGCACAGTGCCACCATCAACTTGCCTGACACCCATTACTCGCATCCATTCTCTCTGTACTTTCCTGACCTTGGCACAGTGCCACCATCAACTTGCCTGACACCGCACTGAAGGTCCTCAATCGTCTGTACTTTCCTGACCTTGGCACAGTGCCACCATCAACTTGCCTGACACCCTGACCTCCTGCCAGCAATATCTGTACTTTCCTGACCTTGGCACAGTGCCACCATCAACTTGCCTGACACCGCTGGGAGTTCGTAGACGGAGCGATTAATCCATATGCAGGTCTATATAAGCAGAGCTCGTTTAGTGAACCGTCAGATCGCCTAGATACGCCATCCACGCTGTTTTGACCTCCATAGAAGATCGCCACCC",2.67,–
"PB1-SV40-MP: promoter: 1 mouse PBREM element with SV40 minimal promoter, SEQ ID NO: 9 (nucleic acid, PB1-SV40-MP) DNA: TCTGTACTTTCCTGACCTTGGCACAGTGCCACCATCAACTTGCCTGACACCGCTGGGAGTTCGTAGACGGACTAGCCCGGGCTCGAGATCTGCGATCTGCATCTCAATTAGTCAGCAACCATAGTCCCGCCCCTAACTCCGCCCATCCCGCCCCTAACTCCGCCCAGTTCCGCCCATTCTCCGCCCCATCGCTGACTAATTTTTTTTATTTATGCAGAGGCCGAGGCCGCCTCGGCCTCTGAGCTATTCCAGAAGTAGTGAGGAGGCTTTTTTGGAGGCCTAGGCTTTTGCAAAAAGCTTGGCATTCCGGTACTGTTGGTAAAGCCACCC",–,"expression level compared to CMV-IE (1 μM CITCO): 55%; induction of luciferase expression (1 μM CITCO, readout 24 hrs after induction): around 7 fold; background level [1]: higher background level; expression driven [1]: highest expression"
"PB1-3-SV40: promoter: 4 mouse PBREM elements with SV40 minimal promoter, SEQ ID NO: 15 (nucleic acid, PB1-3-SV40) DNA: TCTGTACTTTCCTGACCTTGGCACAGTGCCACCATCAACTTGCCTGACACCCATTACTCGCATCCATTCTCTCTGTACTTTCCTGACCTTGGCACAGTGCCACCATCAACTTGCCTGACACCGCACTGAAGGTCCTCAATCGTCTGTACTTTCCTGACCTTGGCACAGTGCCACCATCAACTTGCCTGACACCCTGACCTCCTGCCAGCAATATCTGTACTTTCCTGACCTTGGCACAGTGCCACCATCAACTTGCCTGACACCGCTGGGAGTTCGTAGACGGACTAGCCCGGGCTCGAGATCTGCGATCTGCATCTCAATTAGTCAGCAACCATAGTCCCGCCCCTAACTCCGCCCATCCCGCCCCTAACTCCGCCCAGTTCCGCCCATTCTCCGCCCCATCGCTGACTAATTTTTTTTATTTATGCAGAGGCCGAGGCCGCCTCGGCCTCTGAGCTATTCCAGAAGTAGTGAGGAGGCTTTTTTGGAGGCCTAGGCTTTTGCAAAAAGCTTGGCATTCCGGTACTGTTGGTAAAGCCACCC",2.57,–
"PB1-3-MinTK: promoter: 4 mouse PBREM elements with MinTK minimal promoter, SEQ ID NO: 12 (nucleic acid, PB1-3-MinTk) DNA: TCTGTACTTTCCTGACCTTGGCACAGTGCCACCATCAACTTGCCTGACACCCATTACTCGCATCCATTCTCTCTGTACTTTCCTGACCTTGGCACAGTGCCACCATCAACTTGCCTGACACCGCACTGAAGGTCCTCAATCGTCTGTACTTTCCTGACCTTGGCACAGTGCCACCATCAACTTGCCTGACACCCTGACCTCCTGCCAGCAATATCTGTACTTTCCTGACCTTGGCACAGTGCCACCATCAACTTGCCTGACACCGCTGGGAGTTCGTAGACGGAGATCCGGCCCCGCCCAGCGTCTTGTCATTGGCGAATTCGAACACGCAGATGCAGTCGGGGCGGCGCGGTCCGAGGTCCACTTCGCATATTAAGGTGACGCGTGTGGCCTCGAACACCGAGCGACCCTGCAGCGACCCGCTTAACAGCGTCAACAGCGTGCCGCAGATCTCGAGGAGCTTGGCGAGATTTTCAGGAGCTAAGGAAGCTAAAC",2.66,–
"PB1-1-MinTK: promoter: 2 mouse PBREM elements with MinTK minimal promoter, SEQ ID NO: 10 (nucleic acid, PB1-1-MinTk (2xPBREM)) DNA: TCTGTACTTTCCTGACCTTGGCACAGTGCCACCATCAACTTGCCTGACACCCATTACTCGCATCCATTCTCTCTGTACTTTCCTGACCTTGGCACAGTGCCACCATCAACTTGCCTGACACCGCTGGGAGTTCGTAGACGGAGATCCGGCCCCGCCCAGCGTCTTGTCATTGGCGAATTCGAACACGCAGATGCAGTCGGGGCGGCGCGGTCCGAGGTCCACTTCGCATATTAAGGTGACGCGTGTGGCCTCGAACACCGAGCGACCCTGCAGCGACCCGCTTAACAGCGTCAACAGCGTGCCGCAGATCTCGAGGAGCTTGGCGAGATTTTCAGGAGCTAAGGAAGCTAAAC",1.5,–
"PB1-2-CMV: promoter: 3 mouse PBREM elements with CMV minimal promoter, SEQ ID NO: 17 (nucleic acid, PB1-2-CMV) DNA: TCTGTACTTTCCTGACCTTGGCACAGTGCCACCATCAACTTGCCTGACACCCATTACTCGCATCCATTCTCTCTGTACTTTCCTGACCTTGGCACAGTGCCACCATCAACTTGCCTGACACCGCACTGAAGGTCCTCAATCGTCTGTACTTTCCTGACCTTGGCACAGTGCCACCATCAACTTGCCTGACACCGCTGGGAGTTCGTAGACGGAGCGATTAATCCATATGCAGGTCTATATAAGCAGAGCTCGTTTAGTGAACCGTCAGATCGCCTAGATACGCCATCCACGCTGTTTTGACCTCCATAGAAGATCGCCACCC",2.67,–
"PB1-1-CMV: promoter: 2 mouse PBREM elements with CMV minimal promoter, SEQ ID NO: 16 (nucleic acid, PB1-1-CMV) DNA: TCTGTACTTTCCTGACCTTGGCACAGTGCCACCATCAACTTGCCTGACACCCATTACTCGCATCCATTCTCTCTGTACTTTCCTGACCTTGGCACAGTGCCACCATCAACTTGCCTGACACCGCTGGGAGTTCGTAGACGGAGCGATTAATCCATATGCAGGTCTATATAAGCAGAGCTCGTTTAGTGAACCGTCAGATCGCCTAGATACGCCATCCACGCTGTTTTGACCTCCATAGAAGATCGCCACCC",1.9,–
